{"source": "paper PMC13043311", "about": "“2′-O-Methyl-guanosine RNA fragments antagonize TLR7 and TLR8 to limit autoimmunity”", "binders": {"B1": {"name": "mGrUrC PS (XNA)", "RNA": "GUC", "modifications": "2'-OMe G1, RNA U2 C3; phosphorothioate linkages"}}, "conditions_in_all_cases": "protein: recombinant; chain copies: 2; single-stranded", "key": {"TLR7 P435S": {"biological_target": "T1, TLR7 P435S (Macaca mulatta, UniProt B3Y653 27-839, P435S)", "T1 sequence": "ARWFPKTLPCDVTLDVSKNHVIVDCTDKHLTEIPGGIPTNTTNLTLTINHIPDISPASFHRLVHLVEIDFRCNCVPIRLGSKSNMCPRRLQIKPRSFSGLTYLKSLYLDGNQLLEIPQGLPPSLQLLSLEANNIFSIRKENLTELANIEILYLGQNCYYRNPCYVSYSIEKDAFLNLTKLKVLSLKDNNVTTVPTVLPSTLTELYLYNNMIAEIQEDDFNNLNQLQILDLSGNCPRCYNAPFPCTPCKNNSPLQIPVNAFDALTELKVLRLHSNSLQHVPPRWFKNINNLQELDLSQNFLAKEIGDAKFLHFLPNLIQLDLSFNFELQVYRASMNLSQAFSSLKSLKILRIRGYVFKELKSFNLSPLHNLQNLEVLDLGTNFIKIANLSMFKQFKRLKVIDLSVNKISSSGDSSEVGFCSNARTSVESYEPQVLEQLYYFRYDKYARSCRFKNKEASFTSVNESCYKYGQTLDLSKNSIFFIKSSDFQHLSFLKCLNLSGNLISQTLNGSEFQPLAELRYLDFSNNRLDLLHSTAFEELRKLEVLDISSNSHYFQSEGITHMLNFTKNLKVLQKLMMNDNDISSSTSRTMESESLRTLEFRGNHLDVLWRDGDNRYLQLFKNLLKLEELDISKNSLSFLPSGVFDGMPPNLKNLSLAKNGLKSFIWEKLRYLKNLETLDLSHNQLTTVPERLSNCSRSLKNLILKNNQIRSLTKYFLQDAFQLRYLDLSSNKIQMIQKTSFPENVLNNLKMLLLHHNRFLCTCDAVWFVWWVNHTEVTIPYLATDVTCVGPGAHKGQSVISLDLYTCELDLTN", "test": "SPR; mean computed from runs 5±0.6, 6±0.7, 6±0.7; SPR with recombinant TLR7/TLR8; buffer, pH and temperature not in the material"}, "TLR7 WT (mmTLR7)": {"biological_target": "T2, TLR7 WT (mmTLR7) (Macaca mulatta, UniProt B3Y653 27-839)", "T2 sequence": "T1 sequence with S409P", "test": "SPR; mean computed from runs 0.9±0.3, 2±0.5, 1.4±0.6; SPR with recombinant TLR7/TLR8; buffer, pH and temperature not in the material"}, "TLR7 S530A": {"biological_target": "T3, TLR7 S530A (Macaca mulatta, UniProt B3Y653 27-839, S530A)", "T3 sequence": "T1 sequence with S409P, S504A", "test": "SPR; mean computed from runs 0.1±0.02, 0.2±0.04, 0.2±0.06; SPR with recombinant TLR7/TLR8; buffer, pH and temperature not in the material"}}, "note": "Where a chain is given by its changes, count along the chain named.", "data": [{"binder": "B1", "values": [{"measurement": "Kd", "setting": "TLR7 P435S", "value": 5670, "unit": "nM"}, {"measurement": "Kd", "setting": "TLR7 WT (mmTLR7)", "value": 1430, "unit": "nM"}, {"measurement": "Kd", "setting": "TLR7 S530A", "value": 170, "unit": "nM"}]}]}
